Laboratory results reported in patent US20070066809A1.
Where no end group is shown, it is not given here. [ ]: non-standard residue; d: D form. pGlu = O=C1CC[C@@H](C(=O)O)N1

Experiments:
MAb 458-1 = assay: MAb inhibition ELISA; soluble inhibitor of MAb binding to the coated C-terminal target peptide-BSA
MAb 458-4 = assay: as above
MAb 458-3 = assay: as above
MAb 458-5 = assay: as above
MAb 458-2 = assay: as above
MAb 401-2 = assay: MAb inhibition ELISA; soluble inhibitor of MAb 401-2 binding to the coated G34 N-terminal target antigen
MAb 400-4 = assay: MAb inhibition ELISA; soluble inhibitor of MAb binding to coated hG17(1-9)-“Ala”-BSA
MAb 400-2 = assay: as above
MAb 400-3 = assay: as above
MAb 400-1 = assay: as above
MAb 445-1 = assay: MAb inhibition ELISA; soluble inhibitor of MAb binding to coated hG34(16-34)-Gly 35-BSA
MAb 445-2 = assay: as above

| Binder | % Inhibition at 10 nmol/ml (250 pmoles/well) (MAb 458-1) | % Inhibition at 10 nmol/ml (250 pmoles/well) (MAb 458-4) | % Inhibition at 10 nmol/ml (250 pmoles/well) (MAb 458-3) | % Inhibition at 10 nmol/ml (250 pmoles/well) (MAb 458-5) | % Inhibition at 10 nmol/ml (250 pmoles/well) (MAb 458-2) | IC50 (MAb 401-2) | IC50 (MAb 400-4) | IC50 (MAb 400-2) | IC50 (MAb 400-3) | IC50 (MAb 400-1) | IC50 (MAb 445-1) | IC50 (MAb 445-2) |
| --- | --- | --- | --- | --- | --- | --- | --- | --- | --- | --- | --- | --- |
| [pGlu]LGPQGPPHLVADPSKKEGPWLEEEEEAYGWMDF-NH2 (SMILES CSCC[C@H](NC(=O)[C@H](Cc1c[nH]c2ccccc12)NC(=O)CNC(=O)[C@H](Cc1ccc(O)cc1)NC(=O)[C@H](C)NC(=O)[C@H](CCC(=O)O)NC(=O)[C@H](CCC(=O)O)NC(=O)[C@H](CCC(=O)O)NC(=O)[C@H](CCC(=O)O)NC(=O)[C@H](CCC(=O)O)NC(=O)[C@H](CC(C)C)NC(=O)[C@H](Cc1c[nH]c2ccccc12)NC(=O)[C@@H]1CCCN1C(=O)CNC(=O)[C@H](CCC(=O)O)NC(=O)[C@H](CCCCN)NC(=O)[C@H](CCCCN)NC(=O)[C@H](CO)NC(=O)[C@@H]1CCCN1C(=O)[C@H](CC(=O)O)NC(=O)[C@H](C)NC(=O)[C@@H](NC(=O)[C@H](CC(C)C)NC(=O)[C@H](Cc1c[nH]cn1)NC(=O)[C@@H]1CCCN1C(=O)[C@@H]1CCCN1C(=O)CNC(=O)[C@H](CCC(N)=O)NC(=O)[C@@H]1CCCN1C(=O)CNC(=O)[C@H](CC(C)C)NC(=O)[C@@H]1CCC(=O)N1)C(C)C)C(=O)N[C@@H](CC(=O)O)C(=O)N[C@@H](Cc1ccccc1)C(N)=O) [human gastrin-34 (G34), amidated] | 93.5% | 86.7% | 90.7% | 91.5% | 84.5% | 700 nM | – | – | – | – | – | – |
| EGPWLEEEEEAYGWMDF (N-terminal pyroglutamic acid (pGlu); C-terminal Phe-NH2 (amide)) [human gastrin-17 (G17), mature amidated form] | 94.3% | 88.4% | 92.4% | 91.9% | 86% | – | 620 nM | 85 nM | 1080 nM | 2030 nM | – | – |
| CPPPPSSYGWMDFG [hG17 (12-17)-Gly18 peptide (immunogen peptide …)] | – | – | – | – | – | – | – | – | – | – | 4000 nM | 13000 nM |
| [pGlu]GPWLEEEE (ends and bridges not checked) [hG17(1-9) N terminus peptide] | – | – | 1.2% | – | – | – | – | – | – | – | – | – |
| DYMGWMDF-NH2 [CCK (26-33) unsulfated] | 93.8% | 83.4% | 84.8% | 92% | 84.8% | – | – | – | – | – | – | – |
| [pGlu]GPWLEEEEEAYGWMDFG [human glycine-extended gastrin-17 (G17-Gly)] | 2.1% | – | – | – | – | – | 699 nM | 77 nM | 1390 nM | 1790 nM | 700 nM | 5000 nM |
| EGPWLEKEEAAYGWMDF (ends and bridges not checked) [equine G17] | – | – | – | – | – | – | 1690 nM | 86 nM | 120 nM | 1650 nM | – | – |
